Measurements reported in patent US20030175278A1.

Tests used:
Assay in all cases: Y2H β-galactosidase liquid culture assay (ONPG)
[1] = molecular target: PS1-COOH terminus Y2H bait (human)
[2] = molecular target: PS1-Loop Y2H bait (human)
[3] = molecular target: PS2-Loop Y2H bait (human) (UniProt P49810)
PS2-Loop Y2H bait (human), sequence (P49810 271-361): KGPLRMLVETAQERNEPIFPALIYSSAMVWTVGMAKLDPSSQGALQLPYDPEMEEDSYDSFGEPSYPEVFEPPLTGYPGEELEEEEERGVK

PS1-Loop Y2H bait (human), sequence (P79802 273-380): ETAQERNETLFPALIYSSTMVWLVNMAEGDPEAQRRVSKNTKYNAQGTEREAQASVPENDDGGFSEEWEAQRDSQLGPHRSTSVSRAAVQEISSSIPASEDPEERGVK

fold β-galactosidase activity compared with negative-control baits [1]: > 12 fold | interaction strength relative to the PS2-COOH-terminal bait [2]: 2 fold | interaction strength relative to the PS2-COOH-terminal bait [3]: 2 fold
Substance: near full-length ubiquilin-prey clone (FIG. 2 III, construct H without GST), M37-S595 (from UniProt Q9UMX0 37-587)
